Assay [1] has as its target T1, Dipeptidyl peptidase 9 (DPP9), recombinant wild-type (human, UniProt Q86TI2 1-863). In words: cell-based or functional assay.
For assay [2], the target named is T1, Dipeptidyl peptidase 9 (DPP9), …. In words: cell-based or functional assay. The source holds these as a separate data set.
Assay [3] has as its target T2, SUMO1 (UniProt P63165 1-97, limits assumed).
T2 construct: Immobilized on CnBr Sepharose beads or ELISA wells, or free in solution; also called S1
In words: competition ELISA: SUMO1 pre-incubated with the peptide, then added to immobilized DPP9.
Procedure: ELISA: A 96 well plate (Immuno 96 MicroWell™ Solid Plates, Nunc) was coated with 600 ng purified recombinant proteins per well in 100 μl TB, overnight at 4° C. Next, wells were blocked with ELISA buffer (TB supplemented with 3% BSA) for 1 h at room temperature. After blocking, recombinant interacting proteins were added to the wells. Following 2 hours of incubation at 25° C., wells were washed four times. […] After incubation with secondary antibodies, wells were washed with ELISA buffer and ddH20. Reactions were developed with TMB-substrate reagent set from BD (OptEIA substrate). Absorbance was measured at 420 nm on an Appliskan microplate fluorimeter (Thermo Scientific) and the Skanit software. Experiments were performed at least three times, in triplicates.

Results on 22 molecules are retold here after patent US20150266922A1 (GEORG AUGUST UNIVERSITAT GOTTINGEN STIFTUNG OFFENTLICHEN …, published 2015).

T1 sequence (Q86TI2 other isoform, or with tags, fused parts or gaps limits assumed, form in doubt): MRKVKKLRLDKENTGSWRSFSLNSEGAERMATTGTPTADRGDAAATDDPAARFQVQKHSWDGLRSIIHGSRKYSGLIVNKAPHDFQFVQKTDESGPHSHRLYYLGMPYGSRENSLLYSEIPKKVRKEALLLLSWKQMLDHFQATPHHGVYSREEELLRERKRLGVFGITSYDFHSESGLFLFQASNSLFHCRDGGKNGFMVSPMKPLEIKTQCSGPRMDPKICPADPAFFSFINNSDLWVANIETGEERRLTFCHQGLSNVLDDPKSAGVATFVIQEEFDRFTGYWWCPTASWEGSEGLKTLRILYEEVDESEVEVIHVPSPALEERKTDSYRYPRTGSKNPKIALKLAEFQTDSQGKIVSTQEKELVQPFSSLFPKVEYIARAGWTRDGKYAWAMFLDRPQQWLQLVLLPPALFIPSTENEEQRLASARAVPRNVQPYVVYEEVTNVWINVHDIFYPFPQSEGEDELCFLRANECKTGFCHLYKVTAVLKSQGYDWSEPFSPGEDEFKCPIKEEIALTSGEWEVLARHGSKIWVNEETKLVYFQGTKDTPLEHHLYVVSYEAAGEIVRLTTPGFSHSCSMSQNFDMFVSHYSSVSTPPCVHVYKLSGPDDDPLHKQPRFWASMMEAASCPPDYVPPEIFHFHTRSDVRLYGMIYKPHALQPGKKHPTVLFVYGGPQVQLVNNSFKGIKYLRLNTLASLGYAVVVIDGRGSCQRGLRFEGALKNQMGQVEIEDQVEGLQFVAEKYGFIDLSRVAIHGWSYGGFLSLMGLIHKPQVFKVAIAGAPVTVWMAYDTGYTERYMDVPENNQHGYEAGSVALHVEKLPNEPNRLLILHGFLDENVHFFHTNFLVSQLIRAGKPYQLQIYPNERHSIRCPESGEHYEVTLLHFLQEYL
T2 sequence (P63165 1-97 limits assumed): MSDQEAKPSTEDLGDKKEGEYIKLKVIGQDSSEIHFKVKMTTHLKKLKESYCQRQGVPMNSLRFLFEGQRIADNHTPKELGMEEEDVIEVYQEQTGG

B1: FLIEGQRI (SEQ ID NO: 36) (peptide)
peptide: FLIEGQRI
On to B1, for which the “% DPP9 activity (Mean), 14 µM peptide” value in assay [1] was found to be 49%.

B2: SLRFLWEGQRIADNH (SEQ ID NO: 18) (peptide)
peptide: SLRFLWEGQRIADNH
As for B2, the “% DPP9 activity (Mean), 14 µM peptide” value in assay [1] turned out to be 26.9%.

B3: AAASLRFLYEG (SEQ ID NO: 44) (peptide)
peptide: AAASLRFLYEG
With B3, in assay [2], the “% DPP9 activity (Mean), 10 µM peptide” value amounted to 91.2%.

B4: DPP9-arm peptide (285-VEVIHVPSPALEERKTDSYR-304) (peptide)
peptide: VEVIHVPSPALEERKTDSYR
notes: also called peptide corresponding to the extended arm of DPP9
Turning to B4, the binding result in assay [3] was “binds”.

B5: … (SEQ ID NO: 32) (peptide)
peptide: FLFEGQRIA
B5: in assay [1], the “% DPP9 activity (Mean), 14 µM peptide” value was 38.4%.

B6: SLRFLFAG (SEQ ID NO: 39) (peptide)
peptide: SLRFLFAG
For the molecule B6, the “% DPP9 activity (Mean), 10 µM peptide” value in assay [2] stood at 15.3%.

B7: SLRFLFEAQRIADNH (SEQ ID NO: 22) (peptide)
peptide: SLRFLFEAQRIADNH
In the case of B7, in assay [1], the “% DPP9 activity (Mean), 14 µM peptide” value worked out at 19.5%.

B8: … (SEQ ID NO: 24) (peptide)
peptide: LFEGQRIADNH
For the molecule B8, the “% DPP9 activity (Mean), 14 µM peptide” value in assay [1] worked out at 42.7%.

B9: SLRFLVEGQRIADNH (SEQ ID NO: 19) (peptide)
peptide: SLRFLVEGQRIADNH
As for B9, the “% DPP9 activity (Mean), 14 µM peptide” value in assay [1] was determined as 28.6%.

B10: … (SEQ ID NO: 23) (peptide)
peptide: RFLFEGQRIADNH
Consider B10, for which the “% DPP9 activity (Mean), 14 µM peptide” value in assay [1] is 79.8%.

B11: … (SEQ ID NO: 31) (peptide)
peptide: RFLFEGQRIAD
In the case of B11, the “% DPP9 activity (Mean), 14 µM peptide” value in assay [1] turned out to be 66.4%.

B12: SLRFLYEGAAA (SEQ ID NO: 45) (peptide)
peptide: SLRFLYEGAAA
B12: the “% DPP9 activity (Mean), 10 µM peptide” value in assay [2] was determined as 23.9%.

B13: SLRFLFDGQRIADNH (SEQ ID NO: 17) (peptide)
peptide: SLRFLFDGQRIADNH
In the case of B13, the “% DPP9 activity (Mean), 14 µM peptide” value in assay [1] stood at 74.9%.

B14: TLRFLFEG (SEQ ID NO: 41) (peptide)
peptide: TLRFLFEG
Take B14: the “% DPP9 activity (Mean), 10 µM peptide” value in assay [2] is 29.2%.

B15: … (SEQ ID NO: 27) (peptide)
peptide: SLRFLFEGQRI
Take B15: the “% DPP9 activity (Mean), 14 µM peptide” value in assay [1] is 29.1%.

B16: … (SEQ ID NO: 28) (peptide)
peptide: SLRFLFEGQR
Take B16: the “% DPP9 activity (Mean), 14 µM peptide” value in assay [1] was 18.4%.

B17: … (SEQ ID NO: 33) (peptide)
peptide: FLFEGQRI
As for B17, the “% DPP9 activity (Mean), 14 µM peptide” value in assay [1] was determined as 55.9%.

B18: RRRRSLRFLFEG (SEQ ID NO: 46) (peptide)
peptide: RRRRSLRFLFEG
In the case of B18, the “% DPP9 activity (Mean), 10 µM peptide” value in assay [2] amounted to 92.2%.

B19: SLRFLAEGQRIADNH (SEQ ID NO: 21) (peptide)
peptide: SLRFLAEGQRIADNH
Take B19: the “% DPP9 activity (Mean), 14 µM peptide” value in assay [1] turned out to be 72.9%.

B20: RRRRSLRFLYAG (SEQ ID NO: 47) (peptide)
peptide: RRRRSLRFLYAG
B20: the “% DPP9 activity (Mean), 10 µM peptide” value in assay [2] came out at 91.5%.

B21: SLRFLFEGQRIADNR (SEQ ID NO: 16) (peptide)
peptide: SLRFLFEGQRIADNR
B21: the “% DPP9 activity (Mean), 14 µM peptide” value in assay [1] was 56.4%.

B22: SLRFLYAG (SEQ ID NO: 40) (peptide)
peptide: SLRFLYAG
As for B22, in assay [2], the “% DPP9 activity (Mean), 10 µM peptide” value was 16.3%.
